The text below walks through data of article PMC11419001 (bioRxiv, 2024).

This test has as its target ribosomal protein uS10 of the stalled 70S ribosome (E. coli, UniProt P0A7R5 1-103). In words: cryo-EM structure.

B1: HrpA (E. coli DExH-box RNA helicase), preparation for cryo-EM (enzyme)
chain: MTEQQKLTFTALQQRLDSLMLRDRLRFSRRLHGVKKVKNPDAQQAIFQEMAKEIDQAAGKVLLREAARPEITYPDNLPVSQKKQDILEAIRDHQVVIVAGETGSGKTTQLPKICMELGRGIKGLIGHTQPRRLAARTVANRIAEELKTEPGGCIGYKVRFSDHVSDNTMVKLMTDGILLAEIQQDRLLMQYDTIIIDEAHERSLNIDFLLGYLKELLPRRPDLKIIITSATIDPERFSRHFNNAPIIEVSGRTYPVEVRYRPIVEEADDTERDQLQAIFDAVDELSQESHGDILIFMSGEREIRDTADALNKLNLRHTEILPLYARLSNSEQNRVFQSHSGRRIVLATNVAETSLTVPGIKYVIDPGTARISRYSYRTKVQRLPIEPISQASANQRKGRCGRVSEGICIRLYSEDDFLSRPEFTDPEILRTNLASVILQMTALGLGDIAAFPFVEAPDKRNIQDGVRLLEELGAITTDEQASAYKLTPLGRQLSQLPVDPRLARMVLEAQKHGCVREAMIITSALSIQDPRERPMDKQQASDEKHRRFHDKESDFLAFVNLWNYLGEQQKALSSNAFRRLCRTDYLNYLRVREWQDIYTQLRQVVKELGIPVNSEPAEYREIHIALLTGLLSHIGMKDADKQEYTGARNARFSIFPGSGLFKKPPKWVMVAELVETSRLWGRIAARIDPEWVEPVAQHLIKRTYSEPHWERAQGAVMATEKVTVYGLPIVAARKVNYSQIDPALCRELFIRHALVEGDWQTRHAFFRENLKLRAEVEELEHKSRRRDILVDDETLFEFYDQRISHDVISARHFDSWWKKVSRETPDLLNFEKSMLIKEGAEKISKLDYPNFWHQGNLKLRLSYQFEPGADADGVTVHIPLPLLNQVEESGFEWQIPGLRRELVIALIKSLPKPVRRNFVPAPNYAEAFLGRVKPLELPLLDSLERELRRMTGVTVDREDWHWDQVPDHLKITFRVVDDKNKKLKEGRSLQDLKDALKGKVQETLSAVADDGIEQSGLHIWSFGQLPESYEQKRGNYKVKAWPALVDERDSVAIKLFDNPLEQKQAMWNGLRRLLLLNIPSPIKYLHEKLPNKAKLGLYFNPYGKVLELIDDCISCGVDKLIDANGGPVWTEEGFAALHEKVRAELNDTVVDIAKQVEQILTAVFNINKRLKGRVDMTMALGLSDIKAQMGGLVYRGFVTGNGFKRLGDTLRYLQAIEKRLEKLAVDPHRDRAQMLKVENVQQAWQQWINKLPPARREDEDVKEIRWMIEELRVSYFAQQLGTPYPISDKRILQAMEQISG
With B1, the binding result is recorded as “binds”.
